Assay results from patent US20210388081A1 (Memorial Sloan Kettering, published 2021).
Where a chain is given by its changes, count along the chain named.

T1: FcRL1, overexpressed on 3T3 cells (UniProt Q96LA6 17-429, limits assumed)
T1 construct: whole, on cells
T1 sequence (looked up): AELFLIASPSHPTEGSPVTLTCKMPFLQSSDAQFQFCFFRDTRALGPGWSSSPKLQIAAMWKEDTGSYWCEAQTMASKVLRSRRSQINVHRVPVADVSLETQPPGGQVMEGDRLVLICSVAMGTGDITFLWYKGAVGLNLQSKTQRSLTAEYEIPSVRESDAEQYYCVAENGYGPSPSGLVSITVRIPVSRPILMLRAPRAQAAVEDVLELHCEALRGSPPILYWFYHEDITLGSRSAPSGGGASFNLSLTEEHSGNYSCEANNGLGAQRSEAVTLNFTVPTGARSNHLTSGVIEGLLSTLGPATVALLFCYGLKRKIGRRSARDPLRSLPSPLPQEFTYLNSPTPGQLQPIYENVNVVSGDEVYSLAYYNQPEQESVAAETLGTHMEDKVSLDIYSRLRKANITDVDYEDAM

T2: FcRL2, overexpressed on 3T3 cells (UniProt Q96LA5 20-508, limits assumed)
T2 construct: whole, on cells
T2 sequence (looked up): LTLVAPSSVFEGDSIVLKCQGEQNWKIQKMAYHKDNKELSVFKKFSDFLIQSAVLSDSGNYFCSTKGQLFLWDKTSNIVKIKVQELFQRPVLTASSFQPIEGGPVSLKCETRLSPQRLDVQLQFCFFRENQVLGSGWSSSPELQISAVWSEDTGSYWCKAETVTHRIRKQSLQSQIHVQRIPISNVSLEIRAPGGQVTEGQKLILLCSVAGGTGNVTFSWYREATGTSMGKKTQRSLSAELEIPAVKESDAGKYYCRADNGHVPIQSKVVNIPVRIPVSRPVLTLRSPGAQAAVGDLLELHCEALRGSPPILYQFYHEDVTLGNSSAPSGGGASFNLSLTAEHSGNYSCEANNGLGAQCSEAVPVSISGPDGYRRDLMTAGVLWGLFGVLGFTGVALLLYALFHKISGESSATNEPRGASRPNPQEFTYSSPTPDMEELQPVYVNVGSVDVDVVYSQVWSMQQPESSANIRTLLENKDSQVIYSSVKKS

T3: FcRL3, overexpressed on 3T3 cells (UniProt Q96P31 18-734, limits assumed)
T3 construct: whole, on cells
T3 sequence (looked up): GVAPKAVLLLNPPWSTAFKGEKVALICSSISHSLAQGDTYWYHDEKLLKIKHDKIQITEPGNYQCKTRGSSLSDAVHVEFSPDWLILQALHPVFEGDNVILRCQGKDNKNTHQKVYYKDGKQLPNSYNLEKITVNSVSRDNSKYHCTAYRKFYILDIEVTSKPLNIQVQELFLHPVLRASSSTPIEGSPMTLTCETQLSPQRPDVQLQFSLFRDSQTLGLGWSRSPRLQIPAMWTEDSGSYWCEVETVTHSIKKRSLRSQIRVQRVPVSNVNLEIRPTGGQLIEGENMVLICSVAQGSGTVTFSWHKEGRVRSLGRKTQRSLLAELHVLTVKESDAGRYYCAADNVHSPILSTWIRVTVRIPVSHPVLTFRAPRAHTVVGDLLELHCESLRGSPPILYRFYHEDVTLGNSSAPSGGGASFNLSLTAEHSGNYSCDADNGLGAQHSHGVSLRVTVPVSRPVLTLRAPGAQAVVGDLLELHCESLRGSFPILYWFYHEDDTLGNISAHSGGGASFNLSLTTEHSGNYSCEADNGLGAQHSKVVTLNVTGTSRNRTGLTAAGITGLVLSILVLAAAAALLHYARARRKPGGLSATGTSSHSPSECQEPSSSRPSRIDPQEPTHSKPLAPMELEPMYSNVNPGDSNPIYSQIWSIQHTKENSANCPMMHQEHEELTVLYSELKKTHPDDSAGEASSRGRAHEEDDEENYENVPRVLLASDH

T4: Fc Receptor-like 5 (FcRL5), full length, overexpressed on 3T3 or Raji cells (human, UniProt Q96RD9 16-977)
T4 construct: also called 3T3-FcRL5
T4 sequence: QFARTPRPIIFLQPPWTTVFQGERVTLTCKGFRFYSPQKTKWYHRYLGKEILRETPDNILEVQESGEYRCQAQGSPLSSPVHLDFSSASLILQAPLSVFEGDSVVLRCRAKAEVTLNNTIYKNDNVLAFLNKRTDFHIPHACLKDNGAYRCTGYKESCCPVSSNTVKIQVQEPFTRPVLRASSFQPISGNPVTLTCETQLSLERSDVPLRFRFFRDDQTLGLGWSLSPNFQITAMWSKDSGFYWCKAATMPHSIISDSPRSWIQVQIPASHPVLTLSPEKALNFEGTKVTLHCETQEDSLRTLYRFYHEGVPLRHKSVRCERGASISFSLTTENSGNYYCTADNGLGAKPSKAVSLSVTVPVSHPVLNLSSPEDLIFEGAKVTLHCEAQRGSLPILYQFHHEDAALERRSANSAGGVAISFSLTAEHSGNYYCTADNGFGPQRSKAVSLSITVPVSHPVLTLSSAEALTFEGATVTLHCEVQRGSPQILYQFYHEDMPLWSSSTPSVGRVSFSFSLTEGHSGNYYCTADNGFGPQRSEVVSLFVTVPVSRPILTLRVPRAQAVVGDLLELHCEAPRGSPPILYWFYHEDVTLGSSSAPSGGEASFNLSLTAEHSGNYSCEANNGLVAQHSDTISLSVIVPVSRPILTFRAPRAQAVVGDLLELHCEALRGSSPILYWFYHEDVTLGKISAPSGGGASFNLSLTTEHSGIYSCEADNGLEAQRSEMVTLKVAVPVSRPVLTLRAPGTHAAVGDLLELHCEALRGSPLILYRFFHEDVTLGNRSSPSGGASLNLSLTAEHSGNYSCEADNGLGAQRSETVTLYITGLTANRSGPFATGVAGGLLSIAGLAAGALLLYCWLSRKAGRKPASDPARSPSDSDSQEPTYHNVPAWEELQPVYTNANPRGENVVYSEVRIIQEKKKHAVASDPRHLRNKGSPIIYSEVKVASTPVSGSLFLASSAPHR

B1: ET200-097 (scFv)
scFv: LPVLTQPPSVSVSPGQTAIITCSGDKLGEKYVSWYQQKPGQSPVLVIDQDTRRPSGIPERFSGSNSGTTATLTISGTQAMDEADYYCQAWDRGVVFGGGTKLTVLGSRGGGGSGGGGSGGGGSLEMAEVQLVESGGDLVQPGRSLRLSCAASGFTFNDYAMHWVRQAPGKGLEWVSGISWSGNNIGYADSVKGRFTISRDNAKNSLYLQMNSLRAEDTALYYCAKDSIRYGITWGGFDYWGQGTLVTVSSTSGQAGQHHHHHHGAYPYDVPDYAS
notes: screened as phage clone; entry is VL-linker-VH-His tag-HA tag
B2: ET200-101 (scFv)
scFv: QAVLTQPPSASGAPGQRVTVSCSGSNSNIGSNYVNWYQQFPGTAPKLLMYSSSQRPSGVPDRFSGSKSGTSASLAISGLHSEDEADYYCATWDDSLNAWVFGGGTKLTVLGSRGGGGSGGGGSGGGGSLEMAEVQLVQSGAEVRKPGASVKVSCKTSGYTFTWYAIHWVRQAPGQRLEWMGWINAGSGNTKYSQKFQGRVTLTRDTSASTAYMELSSLRSDDTAVYYCARPNNYGSGGDVFDIWGQGTMVTVSSTSGQAGQHHHHHHGAYPYDVPDYAS
notes: as for B1
B3: ET200-006 (scFv)
scFv: SYVLTQPPSVSVAPGKTARITCGGNNIGSKSVHWYQQKPGQAPVVVIHYDSDRPSGIPERFSGSNSGNTATLTISRVEAGDEADYYCQVWDSSSDHPYVFGTGTKVTVLGSRGGGGSGGGGSGGGGSLEMAEVQLVQSGAEVKKPGASVKVSCKASGYTFTTYGISWVRQAPGQGLEWMGWINTYNGHTNYAQKLQGRATMTADTSTNTAYMELRSLRSDDTAVYYCARVIYGSGDYWGQGTLVTVSSTSGQAGQHHHHHHGAYPYDVPDYAS
notes: as for B1
B4: ET200-099 (scFv)
scFv: QSVLTQPPSASGTPGQRVTISCSGSSSNIGSNTVNWYQQLPGTAPKLLIYSNDQRPSGVPDRFSGSKSGTSASLAISGLQSEDEADYYCASWDDSLNGRYVFGTGTKVTVLGSRGGGGSGGGGSGGGGSLEMAQVQLVQSGAEVRKPGASVKVSCKTSGYTFSWYAIHWVRQAPGQRLEWMGWINAGNGNTKYSQKFQGRVSLTRDTSASTAYMELSSLRSDDTAVYYCARPDNYGSGGDVFDIWGQGTMVTVSSTSGQAGQHHHHHHGAYPYDVPDYAS
notes: as for B1
B5: ET200-100 (scFv)
scFv: NFMLTQPHSVSESPGKTVTISCTRSSGSIASNFVQWYQQRPGSAPTPMIYEDNNRPPGVPDRFSASVDSSSNSASLTISGLKTEDEADYYCQSYDTSNVVFGGGTKLTVLGSRGGGGSGGGGSGGGGSLEMAEVQLVESGGGLVQPGGSLRLSCAASGFTFSSYEMNWVRQAPGKGLEWVSYISSSGSTIYYADSVKGRFTISRDNAKNSLYLQMNSLRAEDTAVYYCARWDYGMDVWGQGTTVTVSSTSGQAGQHHHHHHGAYPYDVPDYAS
notes: as for B1
B6: ET200-104 (scFv)
scFv: B5 scFv with F33Y, P47T, M48V, N54Q, P57S, A65G, V67I, T96S, L107V
notes: as for B1
B7: ET200-102 (scFv)
scFv: QSVVTQPPSVSAAPGQKVTISCSGSSSNIGNNYVSWYQQLPGTAPKLLIYDNNKRPSGIPDRFSGSKSGTSATLGITGLQTGDEADYYCGTWDSSLSAYVFGTGTKVTVLGSRGGGGSGGGGSGGGGSLEMAQVQLVQSGAEVKKPGASVKVSCKASGYTFTNYALHWVRQAPGQGLEWMAWINGGNGNTKYSQNFQGRVTITRDTSASTAYMELSSLRSEDTAVYYCAKPEETAGTIHFDYWGQGTPVTVSSTSGQAGQHHHHHHGAYPYDVPDYAS
notes: as for B1
B8: ET200-081 (scFv)
scFv: QSALTQPASVSGSPGQSITISCTGTSSDIGGYNYVSWYQQHPGKAPKLMIYDVSNRPSGVSNRFSGSKSGNTASLTISGLQAEDEADYYCISYTRTWNPYVFGSGTKVTVLGSRGGGGSGGGGSGGGGSLEMAEVQLVQSGGGVVQPGGSLRLSCAASGFTFDDYAMHWVRQAPGKGLEWVSLISGDGGSTYYADSVKGRFTISRDNSKNSLYLQMNSLRTEDTALYYCAKDRAAAGYYYYGMDVWGQGTTVTVSSTSGQAGQHHHHHHGAYPYDVPDYAS
notes: as for B1
B9: ET200-098 (scFv)
scFv: QPVLTQPPSVSKGLRQTATLTCTGNSNNVGNLGVAWLQQHQGHPPKLLSYRNNNRPSGISERLSASRSGNTASLTITGLQPEDEADYYCSAWDSSLSAWVFGGGTKLTVLGSRGGGGSGGGGSGGGGSLEMAEVQLVESGGVVVQPGGSLRLSCAASGFTFDDYAMHWVRQAPGKGLEWVSLINWDGGSTYYADSVKGRFTISRDNSKNSLYLQMNSLRAEDTALYYCAKGMGLRAFDYWGQGTLVTVSSTSGQAGQHHHHHHGAYPYDVPDYAS
notes: as for B1

Key:
[1] = molecular target: T1, FcRL1, overexpressed on 3T3 cells; test: phage clone on 3T3-FcRL1 cells
[2] = molecular target: T2, FcRL2, overexpressed on 3T3 cells; test: phage clone on 3T3-FcRL2 cells
[3] = molecular target: T3, FcRL3, overexpressed on 3T3 cells; test: phage clone on 3T3-FcRL3 cells
[4] = molecular target: T4, Fc Receptor-like 5 (FcRL5), full …; test: phage clone screening on cells
How it was run: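 Cell-surface binding was read by flow cytometry using anti-M13 coat protein mAb and PE-labelled anti-mouse Ig. Selected scFv phage were screened on FcRL5-overexpressing 3T3 cells, with 3T3 lines bearing FcRL1, 2, 3, 4 or 6 as negative controls.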

Row | Binder | binding result [1] | binding result [2] | binding result [3] | binding result [4]
1 | B1 | no binding | no binding | no binding | binds
2 | B2 | no binding | no binding | no binding | binds
3 | B3 | no binding | no binding | no binding | binds
4 | B4 | no binding | no binding | no binding | binds
5 | B5 | no binding | no binding | no binding | binds
6 | B6 | no binding | no binding | no binding | binds
7 | B7 | no binding | no binding | no binding | binds
8 | B8 | no binding | no binding | no binding | binds
9 | B9 | no binding | no binding | no binding | binds
